# Assay results as given in IntAct's records for PubMed 10446210.
# B1: "Na(+)/H(+) exchange regulatory cofactor NHE-RF1" (Oryctolagus cuniculus (Rabbit)), Q28619 (parent)
# chain: MSADAAAGAPLPRLCCLEKGPNGYGFHLHGEKGKVGQYIRLVEPGSPAEKAGLLAGDRLVEVNGENVEKETHQQVVSRIRAALNAVRLLVVDPDTDEQFRKLGVQIRGELLRAQAGPEQAGPPAAPGEQGPAGENEPREVEKSHPERRELRPRLCAMKKGPNGYGFNLHSDKSRPGQFIRAVDPDSPAEASGLREQDRIVEVNGVCVEGKQHGDVVTAIKAGGDEAKLLVVDKETDEFFKKCKVVPSSEHLNGPLPEPFTNGEIQKNNPETLAPAASESPRPALARSASSDTSEELASQDSPKKEDSTAPSSTSSSSDPILDFSISLAVAKERAHQKRSSRRAPQMDWSEKKELFSNL
# Variants of: B1
# Conditions: with Grk6, O70293-1
# Chain of Grk6, O70293-1 (O70293 whole entry): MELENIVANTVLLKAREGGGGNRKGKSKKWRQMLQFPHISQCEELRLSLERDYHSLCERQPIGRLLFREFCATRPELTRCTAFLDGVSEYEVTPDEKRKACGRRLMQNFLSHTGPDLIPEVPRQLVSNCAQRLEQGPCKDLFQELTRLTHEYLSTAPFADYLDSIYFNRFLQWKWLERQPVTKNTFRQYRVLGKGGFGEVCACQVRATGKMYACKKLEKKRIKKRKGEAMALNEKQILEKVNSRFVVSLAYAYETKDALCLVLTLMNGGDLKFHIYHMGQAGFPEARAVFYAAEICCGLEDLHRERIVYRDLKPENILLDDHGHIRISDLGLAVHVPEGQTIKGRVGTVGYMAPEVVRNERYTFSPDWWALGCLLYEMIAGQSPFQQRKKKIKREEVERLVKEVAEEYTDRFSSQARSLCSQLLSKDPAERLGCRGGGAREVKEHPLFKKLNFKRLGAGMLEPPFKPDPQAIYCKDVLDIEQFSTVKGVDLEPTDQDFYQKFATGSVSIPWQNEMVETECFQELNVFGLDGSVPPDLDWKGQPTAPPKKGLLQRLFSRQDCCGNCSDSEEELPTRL
row,Variant,effect of a mutation on the interaction
1,MSADAAAGAPLPRLCCLEKGPNGYGFHLHGEKGKVGQYIRLVEPGSPAEKAGLLAGDRLVEVNGENVEKETHQQVVSRIRAALNAVRLLVVDPDTDEQFRKLGVQIRGELLRAQAGPEQAGPPAAPGEQGPAGENEPREVEKSHPERRELRPRLCAMAKGPNGYGFNLHSDKSRPGQFIRAVDPDSPAEASGLREQDRIVEVNGVCVEGKQHGDVVTAIKAGGDEAKLLVVDKETDEFFKKCKVVPSSEHLNGPLPEPFTNGEIQKNNPETLAPAASESPRPALARSASSDTSEELASQDSPKKEDSTAPSSTSSSSDPILDFSISLAVAKERAHQKRSSRRAPQMDWSEKKELFSNL [K158A],decreasing interaction
2,MSADAAAGAPLPRLCCLEKGPNGYGFHLHGEKGKVGQYIRLVEPGSPAEKAGLLAGDRLVEVNGENVEKETHQQVVSRIRAALNAVRLLVVDPDTDEQFRKLGVQIRGELLRAQAGPEQAGPPAAPGEQGPAGENEPREVEKSHPERRELRPRLCAMKAGPNGYGFNLHSDKSRPGQFIRAVDPDSPAEASGLREQDRIVEVNGVCVEGKQHGDVVTAIKAGGDEAKLLVVDKETDEFFKKCKVVPSSEHLNGPLPEPFTNGEIQKNNPETLAPAASESPRPALARSASSDTSEELASQDSPKKEDSTAPSSTSSSSDPILDFSISLAVAKERAHQKRSSRRAPQMDWSEKKELFSNL [K159A],decreasing interaction

# Variants of: B1
# Conditions: with Grk6, O70293-1
# Remark: another data set of the same source
row,Variant,effect of a mutation on the interaction
1,MSADAAAGAPLPRLCCLEKGPNGYGFHLHGEKGKVGQYIRLVEPGSPAEKAGLLAGDRLVEVNGENVEKETHQQVVSRIRAALNAVRLLVVDPDTDEQFRKLGVQIRGELLRAQAGPEQAGPPAAPGEQGPAGENEPREVEKSHPERRELRPRLCAMKKGPNGYGFNLHSDKSRPGQFIRAVDPDSPAEASGLREQDRIVEVNGVCVEGKQHGDVVTAIKAGGDEAKLLVVDKETDEFFKKCKVVPSSEHLNGPLPEPFTNGEIQKNNPETLAPAASESPRPALARSAASDTSEELASQDSPKKEDSTAPSSTSSSSDPILDFSISLAVAKERAHQKRSSRRAPQMDWSEKKELFSNL [S289A],disrupting interaction
